Results taken from the nanobody polyreactivity screen of Harvey et al. (2022).

experiment: yeast display, Sf9 membrane polyspecificity reagent, FACS + sequencing; frameworks hold sequencing errors
Procedure, shortened: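 A nanobody's polyreactivity label depends on the gate it was sorted from. Yeast display cells were stained with 10% biotinylated, detergent-solubilized Sf9 membrane reagent for 1 hour at 4 °C, enriched on streptavidin microbeads and sorted by FACS. The low and high (top ~1%) gates were set on anti-HA fluorescence for expression and streptavidin fluorescence for reagent binding.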

Sequence	polyreactivity (PSR sort gate)
QVQLVESGGGLVQAGGSLRLSCAASGSTSLINVMGWYRQAPGKERELVAAISSSDGSTYYADSVKGRFTISRDNAKNTVYLQMNSLKPEDTAVYYCNADYYGYYGLMGYWGQGTLVTVSS	low polyreactivity
QVQLVESGGGLVQAGGSLRLSCAASGSTSLSYVMGWYRQAPGKERELVASITSSGGSTYYADSVKGRFTISRDNAKNTVYLQMNSLKPEDTAVYYCNARSYIDPFSPTSYYRYYWGQGTQVTVSS	high polyreactivity
QVQLVESGGGLVQAGGSLRLSCAASGSTSMSYVKGWYRQAPGKERELVASITSSGGSTYYADSVKGLFTISRDNAKNTVYLQMNSLKPEDTAVYYCNARSYIYPFSPTSYYRYYWGQGTQVTVSS	high polyreactivity
QVQLVESGGGLVQAGGSLRLSCAASGSTSPAYAMGWYRQAPGKERELVAVITGSGASTYYADSVKGRFTISRDNAKNTVYLQMNSMKPEDTAVYYCAADVGFGVVFYDYWGQGTQVTVSS	low polyreactivity
QVQLVESGGGLVQAGGSLRLSCAASGSTSPGYAMGWYRQAPGKERELVAAITWNGGSTYYADSVKGRFTISRDNAKNTVYLQMNSLKPEDTAVYYCNKLSGYGWRSYGYWGQGTQVTVSS	high polyreactivity
QVQLVESGGGLVQAGGSLRLSCAASGSTSPRNAMGWYRQAPGKERELVAAISSGGRTNYADSVKGRFTISRDNAKNTVYLQMNSLKPEDTAVYYCAAEVQSTYWGQGTQVTVSS	low polyreactivity
QVQLVESGGGLVQAGGSLRLSCAASGSTSQTYTMGWYRQAPGKERELVAAISLRGGRTYYADSVKGRFTISRDNAKNTVYLQMNSLKPEDTAVYYCNRDYRGPYYYWGQGTQVTVSS	high polyreactivity
QVQLVESGGGLVQAGGSLRLSCAASGSTSSPNAMGRYRQAPGKEREFVAAISRSGGSTYYADSVKGRFTISRDNAKNTVYLQMNSLKPEETSVHYCAATVTVFYTRYYYWGQGTQVTVSS	high polyreactivity
QVQLVESGGGLVQAGGSLRLSCAASGSTSSPYAMGWYRQAPGKERELVAAITSGGSTNYADSVKGRFTISRDNAKNTVYLEMNSLKPEDTAVYYCATRIYGWSFGSWYKYDYRGQGTQVTVSS	low polyreactivity
QVQLVESGGGLVQAGGSLRLSCAASGSTSSVYTMGWYRPAPGKERELVASISIRGTRTYADSVKGRFTISRDNAKNTVYLQMNSLKPEDTAVYYCAARYPWYVYTIYGYWGQGTQVTVSS	high polyreactivity
QVQLVESGGGLVQAGGSLRLSCAASGSTSSYYAMGWYRQAPGKERELVAAIRTSGRTYYADSVKGRFTISRDNAKNTVYLQMNSLKPEDTAVYYCNAVYVSPDYDSWGQGTQVTVSS	high polyreactivity
QVQLVESGGGLVQAGGSLRLSCAASGSTSTDYAMGWYRQAPGKERELVAAISYGGGSTYYADSVKGRFTISRDNAKNTVYLQMNSLKPEDTAVYYCAAVARFPKYRYYSWGQGTQVTVSS	high polyreactivity
QVQLVESGGGLVQAGGSLRLSCAASGSTSTQYAMGWYRQAPGKERELVAGITQSGGSTYYADSVKGRFTISRDNAKNTVYLQMNSLKPEDTAVYYCAAPPGYTGRYDYYYWGQGTQVTVSS	high polyreactivity
QVQLVESGGGLVQAGGSLRLSCAASGSTSTYNAMGWYRQAPGKERELVAAITESGGSTYYADSVKGRFTISRDNAKNTVYLQMNSLKPEDTAVYYCAADLTYTYEFWGQGTQVTVSS	low polyreactivity
QVQLVESGGGLVQAGGSLRLSCAASGSTSVDYTMGWSRQAPGKERELVAAIDYNGDSTYYADSVKGRFTISRDNAKITVYLQMNRLKPEDTAVYYCADDVWTLDPDEYDYWGQGTQVTVSS	low polyreactivity
QVQLVESGGGLVQAGGSLRLSCAASGSTSWLNAMGWYRQATGKERELVAAISVNTGSTYYADSVKGRFTISRDNAKNTVYLQMNSLKPEDTAVYYCAARGRGHGTTPNDYWGQGTQVTVSS	high polyreactivity
QVQLVESGGGLVQAGGSLRLSCAASGSTSYNAMGWYRQAPGKERELVAAISDGGGSTYYADSVKGRFTISRDNAKNTVYLQMNSLKPEDTAVYYCAADTITGDGYWAQGTQVTVSS	low polyreactivity
QVQLVESGGGLVQAGGSLRLSCAASGSTSYRYAMGWYRQAPGKERELVAAISSSGGSTYYADSVKGRFTISRDNAKNTVYLQMNSLKPEDTAVYYCAARFYSGPGGYTMYYWGQGTQVTVSS	high polyreactivity
QVQLVESGGGLVQAGGSLRLSCAASGSTSYTNAMGWYRQAPGKERELVARITNDGSTTYADSVKGRFTISRDNAKNTVYLQMNSLKPEDTAVYYCARPYRFWRYYGMYYWGQGTQVTVSS	high polyreactivity
QVQLVESGGGLVQAGGSLRLSCAASGSTSYWYAMGWYRQAPGKERELVAAISSDDSTHYADSVKGRFTISRDNAKNTVYLQMNSLKPEDTAVYYFNREHYLIRYDYWGQGTQVTVSS	low polyreactivity
QVQLVESGGGLVQAGGSLRLSCAASGSTSYYYTMGWYRQAPGKERELVASISSSGTSTYYADSVKGRFTISRDNPKNTVYLQMNSLKPEDTAVYYCAATADNNTPSGYDYWGQGTQVTVSS	high polyreactivity
QVQLVESGGGLVQAGGSLRLSCAASGSTVGHYAMGWYRQAPGKERELVAAISVSGGSTYYADSVKGRFTISRDTAKNTVYLQMNSLKPEDTAVYYCAREYAHLSFLSTSSDYWGQGTQVTVSS	low polyreactivity

Sequence	polyreactivity (PSR sort gate)
QVQLVESGGGLVQAGGSLRLSCAASGSTVHYMGWYRQAHGKESELVAGISWSGGSTYYADSVKGRFTISRDNAKKTVYLQINSLKPEDTAVYYCAADIKIRLYTTGDYWGQGTQVTVSS	low polyreactivity
QVQLVESGGGLVQAGGSLRLSCAASGSTVHYMGWYRQAPGKERELVAGISWSGGSTYYADSVKGRFTISRDNAKNTVYLQMNSLKPEDTAVYYCAADIKIRLYTTGDYWGQGSQVTVSS	low polyreactivity
QVQLVESGGGLVQAGGSLRLSCAASGSTVWFYAMGWYRQAPGKERELVAVISNSGSTYYADSVKGRFTISRDNAKNTVYLQMNSLKPEDTAVYYCNKDGGGDSYWYDYWGQGTQVTVSS	low polyreactivity
QVQLVESGGGLVQAGGSLRLSCAASGSTYAFYAMGWYRQAPGKERELVAAITSGGSTKYADSVKGRFTISRDNAKNTVYLQMNSLKPEDTAFYYCAARSRWSKLFRYDYWGQGTQVTVSS	high polyreactivity
QVQLVESGGGLVQAGGSLRLSCAASGSTYATYAMGWYRQAPGKERELVAVITRGGRTYYADSVKGRFTISRDNAKNTVYLQMNSLKPEDTAVYYCAARTLWYVIFTLHDYNYWGQGTQVTVSS	high polyreactivity
QVQLVESGGGLVQAGGSLRLSCAASGSTYDYNAMGWYIQAPGKERELDAAINSGASTYYGDSVKGRFTISRDNEKNSVYLQMNSMKPEDTAVYYCAKDYPYIGDYWGQCTQVTVSS	low polyreactivity
QVQLVESGGGLVQAGGSLRLSCAASGSTYGGYTMGWYRPAPGKVWELVAAIRLSGVSTYYADSVKGRFTISRDNAKNTVYLQMNSLKPEDTAVYYCAARGWYRYGSVYYIGDYWGQGTQVTVSS	high polyreactivity
QVQLVESGGGLVQAGGSLRLSCAASGSTYISYAMGWYRQAPGKERELVAAITVSGGRTYYADSVKGRFTISRDNAKNTVYLQMNSLKPEDTAVYYCARGYARSRRWRFDYWGQGTQVTVSS	high polyreactivity
QVQLVESGGGLVQAGGSLRLSCAASGSTYKFYAMGWYRQATGKERELVAAISGSSGSTYYADSVKGRFTISRDNAKNTVYLQMNSLKPEDTAVYYWNTQYSRYYTRYSAYDYWGQGTQVTVSS	low polyreactivity
QVQLVESGGGLVQAGGSLRLSCAASGSTYKGYAMGWYRQAPGKERELVAAISSSGGGTYYADSVKGRFTISRDNAKNTVYLQMNSLKPEDTAVYYCAATYYRGNYRTHYDYWGQGTQVTVSS	high polyreactivity
QVQLVESGGGLVQAGGSLRLSCAASGSTYLYAIRWYRQAPGKERELVAAISWSGGSTYYADSVKGRFTISRDNAKNTVYLQMNSLKPEDTAVYYCNAYTYPFDWGQGTQVTVSS	high polyreactivity
QVQLVESGGGLVQAGGSLRLSCAASGSTYRDYAKGWYRQAPGKERELVASITSGSSTYYADSLKGRFTMSRDNAKNTVYLQMNSLKPEDTAVYYCATGRQYDLHRLRHDYWGQGTQVTVSS	low polyreactivity
QVQLVESGGGLVQAGGSLRLSCAASGSTYRGYAMGWYRQAPGKEMELVAAISNRGTRTYYADSVKGRFTISRYNAKNTFYLQMNSLKPEDTAVYYFSAGNRVHRFDYWGQGTQVTVSS	high polyreactivity
QVQLVESGGGLVQAGGSLRLSCAASGSTYRLYAMGWYRQAPGKERELVAAITWRGTTYYADSVKGRFTISRDNAKNTVYLQMNSLKPEDTAVYYCAARAPVAGYKYRYDYWGQGTQVTVSS	high polyreactivity
QVQLVESGGGLVQAGGSLRLSCAASGSTYRVKAMGWYRQAPGKEREFVAAITRGGSTNYADSVKGRFTISRDNAMNTVYLQMNSLKPEDTAVYYCATAYRGRAWGYVYWGQGTQVTVSS	high polyreactivity
QVQLVESGGGLVQAGGSLRLSCAASGSTYRYYDMGWYRQAPGKERELVAAITWSGGTTYYADSVKGRFTISRDNAKNTVYLQMNSLKPEDTAVYYCAADSVLTPYDYWGQGTQVTVSS	low polyreactivity
QVQLVESGGGLVQAGGSLRLSCAASGSTYYKYAMGTDRPAPGKERELVASSSRSGGSTSYADSVKGRFTISRDNAKNTVYLQMNSVKPEDTAVYYCAATWRQHPGSMGYWGQGTQVTVSS	high polyreactivity
QVQLVESGGGLVQAGGSLRLSCAASGSTYYPYAMGWSRQAPGKEWQFVAAITWSGGSTYADSVKGRFTISRDNAKNTVNLQMNSLKPEDTAGYYCAAQPFVIDGGYRGDYWGQGTQETVSS	low polyreactivity
QVQLVESGGGLVQAGGSLRLSCAASGSTYYWYMGWYRQAPGKERELVAAITSGGRTYYADSVKGRFTISRDNAKNTVYLQMNSLKPEDTAVYYCARPYSRAYDYWGQGTQVTVSS	high polyreactivity
QVQLVESGGGLVQAGGSLRLSCAASGSTYYYNAMGSYRQAPGKDRELVARISRSGGSTYADSVKGRFTISRDNAKNTVYLQMNSLKPEDTAVYYCNADAYGTPEFTSYAVRYDYWGQGTQVTVSS	low polyreactivity
QVQLVESGGGLVQAGGSLRLSCAASGSTYYYYMGWYRQAPGKERELVASISYTGSRTYYADSVKGRFTISRDNAKNTVYLQMNSLKPEDTAVYYCAAARSRARSYYYWGQGTQVTVSS	high polyreactivity
